# Results: PMC4376941, “The Gene YALI0E20207g from Yarrowia lipolytica Encodes an N-Acetylglucosamine Kinase Implicated in the Regulated Expression of the Genes from the N-Acetylglucosamine Assimilatory Pathway” (PLoS ONE, 2015)
# B1: YlNag5 (YALI0E20207p), N-acetylglucosamine (NAGA) kinase (Yarrowia lipolytica CLIB122) (protein)
# chain: MSMGDDDRAYHHQMSVIVTAANANLPGHGKGPLVSVSSELLTKESHLMYDFERYVARNPSRFNQKVLDNLRIHHTYTRSSLDTLVNEFLAEITPACANRDAPSMLPSKMGSLPNDSLTGSVLSIDIGGSTLRGSMVDLEKMTVTDSVQHLIPDTVKNYSGSDFFDWIVERIMPLVKDCTATIIPIGLSWSFPIFQPHISSGLIQTMGKGYGVADEIINQDLKELFETHFASHGKTVEVGAILNDSVASLVAANYISNAPLCLILGTGINVSALIPKDQLKKTEQDQDKYIVNCEASLFGQCVSKTCWDLELDQALERPGFQPLESLSSGRYLGEICRLILRDLSKTGFLSRPDVGPYELTTAEVADLETADSGELDYVQDIILATSDRSAALASAFITAIYKLTGSDCESPSIAYDGTMVQKYPNFRPRMQQRLREQGLNVTFVAVEEGTVYGSAIACASQLSQ
# notes: N-terminal GST fusion (pGEX-4T-2, plasmid pCL151), full-length ORF, expressed in E. coli BL21(DE3), glutathione-Sepharose eluted, tag not reported cut
# Substrate: Nc1ncnc2c1ncn2[C@@H]1O[C@H](COP(=O)(O)OP(=O)(O)OP(=O)(O)O)[C@@H](O)[C@H]1O
# Test: purified protein
# Type: biochemical, Yarrowia lipolytica
# Details: 4 mM NAGA, 0.1 M Tris-HCl pH 7.5, 30 °C, mean of two preparations
protein,measurement,value
B1,Km,1000 µM
